Experimental data from the supplement of paper PMC10567573.

B1: KRT18 (parent)
chain: RVRSLETENRRLESKIREHLEKKG

Variants of: B1
Test: protein stability index of a GFP-peptide fusion (GPS, HEK-293T) (PSI 1-6); higher = more stable
Conditions: c terminus: a fixed tail appended
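Note: lentivirally expressed fusions sorted by FACS into six bins by GFP to DsRed ratio, PSI derived from sequencing read proportions per bin multiplied by bin number.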

Compared with RVESLETENRRLESKIREHLEKKG [R3E], RVPSLETENRRLESKIREHLEKKG [R3P] is lower in protein stability index: 4.85 for the first, 4.42 for the second.

Compared with RVGSLETENRRLESKIREHLEKKG [R3G], RVMSLETENRRLESKIREHLEKKG [R3M] is lower in protein stability index: 4.64 for the first, 3.72 for the second.

Going from RVLSLETENRRLESKIREHLEKKG [R3L] to RVHSLETENRRLESKIREHLEKKG [R3H], the protein stability index falls from 4.51 to 3.61.

Going from RVWSLETENRRLESKIREHLEKKG [R3W] to RVCSLETENRRLESKIREHLEKKG [R3C], the protein stability index falls from 3.43 to 3.42.

Going from RVQSLETENRRLESKIREHLEKKG [R3Q] to RVDSLETENRRLESKIREHLEKKG [R3D], the protein stability index falls from 4.37 to 4.22.

Compared with RVTSLETENRRLESKIREHLEKKG [R3T], RVVSLETENRRLESKIREHLEKKG [R3V] is lower in protein stability index: 4.46 for the first, 4.44 for the second.

Compared with RVYSLETENRRLESKIREHLEKKG [R3Y], RVKSLETENRRLESKIREHLEKKG [R3K] is higher in protein stability index: 3.15 for the first, 4.45 for the second.

Going from RVASLETENRRLESKIREHLEKKG [R3A] to RVISLETENRRLESKIREHLEKKG [R3I], the protein stability index falls from 4.51 to 3.91.

Going from RVFSLETENRRLESKIREHLEKKG [R3F] to RVRSLETMNRRLESKIREHLEKKG [E8M], the protein stability index rises from 3.46 to 4.32.

Going from RVRSLETINRRLESKIREHLEKKG [E8I] to RVRSLETDNRRLESKIREHLEKKG [E8D], the protein stability index falls from 4.4 to 3.96.

Compared with RVRSLETGNRRLESKIREHLEKKG [E8G], RVRSLETCNRRLESKIREHLEKKG [E8C] is lower in protein stability index: 4.42 for the first, 4.22 for the second.

Compared with RVRSLETANRRLESKIREHLEKKG [E8A], RVRSLETLNRRLESKIREHLEKKG [E8L] is higher in protein stability index: 4.08 for the first, 4.33 for the second.

First: RVRSLETQNRRLESKIREHLEKKG [E8Q]
Second: RVRSLETRNRRLESKIREHLEKKG [E8R]
The protein stability index of the first is lower: 3.38 for the first, 3.46 for the second.

First: RVRSLETYNRRLESKIREHLEKKG [E8Y]
Second: RVRSLETHNRRLESKIREHLEKKG [E8H]
The protein stability index of the first is lower: 3.82 for the first, 4.36 for the second.

Going from RVRSLETTNRRLESKIREHLEKKG [E8T] to RVRSLETKNRRLESKIREHLEKKG [E8K], the protein stability index falls from 4.2 to 3.89.

First: RVRSLETEVRRLESKIREHLEKKG [N9V]
Second: RVRSLETEQRRLESKIREHLEKKG [N9Q]
The protein stability index of the first is lower: 1.9 for the first, 4.74 for the second.

Compared with RVRSLETEFRRLESKIREHLEKKG [N9F], RVRSLETEGRRLESKIREHLEKKG [N9G] is higher in protein stability index: 2.3 for the first, 3.48 for the second.

Going from RVRSLETEDRRLESKIREHLEKKG [N9D] to RVRSLETERRRLESKIREHLEKKG [N9R], the protein stability index falls from 5.09 to 3.81.

First: RVRSLETEERRLESKIREHLEKKG [N9E]
Second: RVRSLETEYRRLESKIREHLEKKG [N9Y]
The protein stability index of the first is higher: 4.97 for the first, 3.85 for the second.

Going from RVRSLETELRRLESKIREHLEKKG [N9L] to RVRSLETEHRRLESKIREHLEKKG [N9H], the protein stability index rises from 1.79 to 4.51.

First: RVRSLETEIRRLESKIREHLEKKG [N9I]
Second: RVRSLETEMRRLESKIREHLEKKG [N9M]
The protein stability index of the first is lower: 2 for the first, 2.85 for the second.

Going from RVRSLETEARRLESKIREHLEKKG [N9A] to RVRSLETEWRRLESKIREHLEKKG [N9W], the protein stability index falls from 2.73 to 1.85.

First: RVRSLETENRRLTSKIREHLEKKG [E13T]
Second: RVRSLETENRRLDSKIREHLEKKG [E13D]
The protein stability index of the first is higher: 4.1 for the first, 2.98 for the second.

Compared with RVRSLETENRRLASKIREHLEKKG [E13A], RVRSLETENRRLYSKIREHLEKKG [E13Y] is lower in protein stability index: 4.22 for the first, 3.05 for the second.

First: RVRSLETENRRLMSKIREHLEKKG [E13M]
Second: RVRSLETENRRLFSKIREHLEKKG [E13F]
The protein stability index of the first is higher: 3.26 for the first, 2.16 for the second.

Compared with RVRSLETENRRLSSKIREHLEKKG [E13S], RVRSLETENRRLCSKIREHLEKKG [E13C] is higher in protein stability index: 3.91 for the first, 4.3 for the second.

First: RVRSLETENRRLGSKIREHLEKKG [E13G]
Second: RVRSLETENRRLQSKIREHLEKKG [E13Q]
The protein stability index of the first is higher: 4.75 for the first, 3.95 for the second.

First: RVRSLETENRRLISKIREHLEKKG [E13I]
Second: RVRSLETENRRLRSKIREHLEKKG [E13R]
The protein stability index of the first is lower: 2.37 for the first, 3.99 for the second.

Compared with RVRSLETENRRLKSKIREHLEKKG [E13K], RVRSLETENRRLVSKIREHLEKKG [E13V] is lower in protein stability index: 4.84 for the first, 3.74 for the second.

First: RVRSLETENRRLHSKIREHLEKKG [E13H]
Second: RVRSLETENRRLPSKIREHLEKKG [E13P]
The protein stability index of the first is lower: 4.21 for the first, 4.33 for the second.

Going from RVRSLETENRRLNSKIREHLEKKG [E13N] to RVRSLETENRRLWSKIREHLEKKG [E13W], the protein stability index falls from 4.89 to 3.85.

Compared with RVRSLETENRGLESKIREHLEKKG [R11G], RVRSLETENRYLESKIREHLEKKG [R11Y] is lower in protein stability index: 3.96 for the first, 3.33 for the second.

First: RVRSLETENRVLESKIREHLEKKG [R11V]
Second: RVRSLETENRFLESKIREHLEKKG [R11F]
The protein stability index of the first is higher: 4.79 for the first, 4.74 for the second.

Compared with RVRSLETENRILESKIREHLEKKG [R11I], RVRSLETENRDLESKIREHLEKKG [R11D] is higher in protein stability index: 4.47 for the first, 5.08 for the second.

First: RVRSLETENRNLESKIREHLEKKG [R11N]
Second: RVRSLETENRALESKIREHLEKKG [R11A]
The protein stability index of the first is lower: 4.35 for the first, 4.43 for the second.

Compared with RVRSLETENRWLESKIREHLEKKG [R11W], RVRSLETENRLLESKIREHLEKKG [R11L] is higher in protein stability index: 3.69 for the first, 4.31 for the second.

Going from RVRSLETENRCLESKIREHLEKKG [R11C] to RVRSLETENRSLESKIREHLEKKG [R11S], the protein stability index rises from 4.96 to 5.33.

Going from RVRSLETENRELESKIREHLEKKG [R11E] to RVRSLETENRHLESKIREHLEKKG [R11H], the protein stability index rises from 4.73 to 4.91.

Compared with RVRSLETENRTLESKIREHLEKKG [R11T], RVRSLETENGRLESKIREHLEKKG [R10G] is lower in protein stability index: 4.94 for the first, 4.68 for the second.

Going from RVRSLETENERLESKIREHLEKKG [R10E] to RVRSLETENVRLESKIREHLEKKG [R10V], the protein stability index rises from 4.79 to 5.08.

Going from RVRSLETENPRLESKIREHLEKKG [R10P] to RVRSLETENDRLESKIREHLEKKG [R10D], the protein stability index falls from 5.08 to 4.3.

Compared with RVRSLETENSRLESKIREHLEKKG [R10S], RVRSLETENHRLESKIREHLEKKG [R10H] is lower in protein stability index: 4.88 for the first, 4.74 for the second.

First: RVRSLETENYRLESKIREHLEKKG [R10Y]
Second: RVRSLETENTRLESKIREHLEKKG [R10T]
The protein stability index of the first is higher: 4.94 for the first, 4.71 for the second.

First: RVRSLETENIRLESKIREHLEKKG [R10I]
Second: RVRSLETENKRLESKIREHLEKKG [R10K]
The protein stability index of the first is higher: 4.42 for the first, 4.36 for the second.

Compared with RVRSLETENFRLESKIREHLEKKG [R10F], RVRSLETENARLESKIREHLEKKG [R10A] is lower in protein stability index: 4.76 for the first, 4.16 for the second.

Going from RVRSLETENMRLESKIREHLEKKG [R10M] to RVRSLETENCRLESKIREHLEKKG [R10C], the protein stability index falls from 5.26 to 4.

Going from RVRSLETENLRLESKIREHLEKKG [R10L] to RVRSLETENNRLESKIREHLEKKG [R10N], the protein stability index rises from 4.49 to 4.69.
